US20230416396A1 (Regeneron, published 2023)

Assays:
[1] = target: T1, human 4-1BB expressed with a C-terminal murine Fc tag (human, UniProt Q07011 24-186); assay: SPR Biacore 4000, h4-1BB.mFc captured by anti-mouse Fc, antibody as analyte, 25 C
T1 construct: also called h4-1BB.mFc; REGN3585; not shown: C-terminal murine Fc tag
Description: Equilibrium dissociation constants (KD values) for human 4-1BB expressed with a C-terminal murine Fc tag (h4-1BB.mFc, REGN3585) binding to purified anti-CD38×4-1BB 1+2 antibodies were determined using a real-time surface plasmon resonance biosensor using a Biacore 4000 instrument. […] All Biacore binding studies were performed in a buffer composed of 0.01M HEPES pH 7.4, 0.15M NaCl, 3 mM EDTA, 0.05% v/v Surfactant P20 (HBS-EP running buffer). Different concentrations of CD38×4-1BB 1+2 constructs prepared in HBS-EP running buffer (ranging from 100 to 6.25 nM in 4-fold serial dilutions) were injected over the h4-1BB.mFc (REGN3585) captured surface at a flow rate of 30 μL/minute. Antibody-reagent association was monitored for 5 minutes while dissociation in HBS-EP running buffer was monitored for 10 minutes. At the end of each cycle, the h4-1BB.mFc capture surface was regenerated using a 40 sec injection of 10 mM glycine, pH 1.5. All binding kinetics experiments were performed at 25° C.
Kinetic association (kₐ) and dissociation (kd) rate constants were determined by fitting the real-time sensorgrams to a 1:1 binding model using Cytiva Insight curve fitting software. Binding dissociation equilibrium constants (KD) and dissociative half-lives (t/2) were calculated from the kinetic rate constants as: […]

human 4-1BB on cells [2] = target: T2, human 4-1BB on cells (human, UniProt Q07011 24-255); assay: cell-based or functional assay
human 4-1BB on cells [3] = target: T2, human 4-1BB on cells; assay: cell-based or functional assay; remark: listed apart in the source

T1 sequence (Q07011 24-186 limits assumed): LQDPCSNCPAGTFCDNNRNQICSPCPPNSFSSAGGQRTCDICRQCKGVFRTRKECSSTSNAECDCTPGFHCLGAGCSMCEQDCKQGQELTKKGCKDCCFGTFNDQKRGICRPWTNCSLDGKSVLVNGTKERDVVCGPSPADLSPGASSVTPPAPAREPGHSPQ
T2 sequence (Q07011 24-255): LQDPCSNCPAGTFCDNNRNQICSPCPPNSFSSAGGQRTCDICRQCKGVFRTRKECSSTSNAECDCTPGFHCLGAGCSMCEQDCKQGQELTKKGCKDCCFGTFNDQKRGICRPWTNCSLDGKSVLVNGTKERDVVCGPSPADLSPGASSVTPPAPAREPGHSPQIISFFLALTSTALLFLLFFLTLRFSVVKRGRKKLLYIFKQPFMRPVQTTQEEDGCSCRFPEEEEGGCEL

B1: REGN7647 (bispecific antibody, human IgG4 S228P, kappa)
heavy 1: EVQLVESGGGLVQPGRSLRLSCGASGFTFDDYVMHWVRQIPGKGLEWVAGISWNSGSIGYADSVKGRFTISRDNAKNSLYLQMNSLRAEDTALYFCAKDHIDPYSSSLYYYYGMDVWGQGTTVTVSSASTKGPSVFPLAPCSRSTSESTAALGCLVKDYFPEPVTVSWNSGALTSGVHTFPAVLQSSGLYSLSSVVTVPSSSLGTKTYTCNVDHKPSNTKVDKRVESKYGPPGGGGSGGGGSGGGGSEVQLVESGGGLVQPGRSLRLSCGASGFTFDDYVMHWVRQIPGKGLEWVAGISWNSGSIGYADSVKGRFTISRDNAKNSLYLQMNSLRAEDTALYFCAKDHIDPYSSSLYYYYGMDVWGQGTTVTVSSASTKGPSVFPLAPCSRSTSESTAALGCLVKDYFPEPVTVSWNSGALTSGVHTFPAVLQSSGLYSLSSVVTVPSSSLGTKTYTCNVDHKPSNTKVDKRVESKYGPPCPPCPAPPVAGPSVFLFPPKPKDTLMISRTPEVTCVVVDVSQEDPEVQFNWYVDGVEVHNAKTKPREEQFNSTYRVVSVLTVLHQDWLNGKEYKCKVSNKGLPSSIEKTISKAKGQPREPQVYTLPPSQEEMTKNQVSLTCLVKGFYPSDIAVEWESNGQPENNYKTTPPVLDSDGSFFLYSRLTVDKSRWQEGNVFSCSVMHEALHNRFTQKSLSLSPGK
heavy 2: EVQLVESGGGLVQPGRSLRLSCAASGFTFDDYAMHWVRQAPGKGLEWVSGISWKSDNIGYADSVKGRFTISRDNAKNSLYLQMNSLRAEDTALYYCAKALGGWKFDYYYGMDVWGQGTTVTVSSASTKGPSVFPLAPCSRSTSESTAALGCLVKDYFPEPVTVSWNSGALTSGVHTFPAVLQSSGLYSLSSVVTVPSSSLGTKTYTCNVDHKPSNTKVDKRVESKYGPPCPPCPAPPVAGPSVFLFPPKPKDTLMISRTPEVTCVVVDVSQEDPEVQFNWYVDGVEVHNAKTKPREEQFNSTYRVVSVLTVLHQDWLNGKEYKCKVSNKGLPSSIEKTISKAKGQPREPQVYTLPPSQEEMTKNQVSLTCLVKGFYPSDIAVEWESNGQPENNYKTTPPVLDSDGSFFLYSRLTVDKSRWQEGNVFSCSVMHEALHNHYTQKSLSLSLGK
light: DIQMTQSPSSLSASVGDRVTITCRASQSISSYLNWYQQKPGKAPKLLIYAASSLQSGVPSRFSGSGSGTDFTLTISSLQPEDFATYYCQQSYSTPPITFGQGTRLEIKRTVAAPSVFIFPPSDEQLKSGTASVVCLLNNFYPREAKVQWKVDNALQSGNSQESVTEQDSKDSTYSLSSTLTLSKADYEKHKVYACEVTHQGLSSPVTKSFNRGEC
notes: 1+2 format, hIgG4P-PVA; The linker between the two 4-1BB Fabs is (G4S)3v15; also called CD38x4-1BB (1 + 2), (G4S)3v15; 26812P2 x 35333P2 (IN) + 35333P2 (OUT)
[1]
  100 nM Ab Bind (RU): 206 RU
  Kd: 0.56 nM
  koff: 0.000351 s⁻¹
  kon: 626000 M⁻¹ s⁻¹
  t½: 32.9 min
Human 4-1BB on cells [2]
  EC50 of IFNγ release, T cells + NALM-6 + IgG4P: 81.5 pM
Human 4-1BB on cells [3]
  EC50 of IFNγ release, T cells + HEK293/CD20/CD38 + REGN2281: 61.7 pM
  EC50 of IFNγ release, T cells + MOLP-8 + REGN5458: 70.7 pM
  EC50 of IFNγ release, T cells + NALM-6: 70.3 pM
  MAX IFNγ release, T cells + HEK293/CD20 + REGN2281: 1910 pg/mL
  MAX IFNγ release, T cells + HEK293/CD20/CD38 + REGN2281: 6050 pg/mL
  MAX IFNγ release, T cells + MOLP-8 + IsoC: 103 pg/mL
  MAX IFNγ release, T cells + MOLP-8 + REGN5458: 3280 pg/mL
  MAX IFNγ release, T cells + NALM-6: 655 pg/mL
